Substrate in data set [1]: CNCCCOc1ccc2nc(C3=N[C@@H](C(=O)O)CS3)ccc2c1
Description: Two-step bioluminogenic MAO B substrate assay. It counts as biochemical, human. As to conditions: other: fit of Tables 23-24.

Substrate in data set [2]: NCCCOc1ccc2nc(C3=N[C@@H](C(=O)O)CS3)sc2c1
The experiment in a line: Two-step bioluminogenic MAO B substrate assay. Format: biochemical, human.

Substrate in data set [3]: CNCCCOc1ccc2c(C)cc(=O)oc2c1
The experiment in a line: Fluorogenic MAO B substrate assay. It counts as biochemical, human. As to conditions: other: fit of Table 31. The method, then: (§1) The fluorescent signal was then measured (excitation/emission=355/460 nm) on a Fluoroskan Ascent plate fluorometer.
(§2) This 90 μl contained 35 μl 200 mM Tricine pH 8.3, 35 μl 200 mM Tricine pH 8.7 (or water), 10 μl 200 mM MgSO4, and 10 μl of each substrate dilution.

Substrate in data set [4]: CNCCCOc1ccc2c(C)cc(=O)oc2c1
Description: Fluorogenic MAO A substrate assay. It counts as biochemical, human. As to conditions: other: fit of Table 31. As for the experimental part: as §1, §2

Substrate in data set [5]: CNCCCOc1ccc2nc(C3=N[C@@H](C(=O)O)CS3)ccc2c1
Description: purified protein, by the assay type.

Substrate in data set [6]: NCCCOc1ccc2nc(C3=N[C@@H](C(=O)O)CS3)sc2c1
Description: purified protein, by the assay type. As to conditions: other: fit of Tables 23-24.

Substrate in data set [7]: CNCCCOc1ccc2nc(C3=N[C@@H](C(=O)O)CS3)ccc2c1
Description: Two-step luminescent FMO 3 assay. It counts as biochemical, human. The following applies: other: fit of Table 33.

Substrate in data set [8]: O=C(O)[C@H]1O[C@@H](Oc2ccc3nc(C4=N[C@@H](C(=O)O)CS4)sc3c2)[C@H](O)[C@@H](O)[C@@H]1O
The experiment in a line: Beta-glucuronidase (GUS) assay. Format: biochemical, human. As to conditions: other: 50 mM MES, pH 6.3. The method, then: The source of the human enzyme was Sigma-Aldrich. GUS was incubated with the substrate in 50 mM MES, pH 6.3, for 15 minutes.

B1: human recombinant monoamine oxidase B (MAO B) (Homo sapiens) (protein)
chain: MSNKCDVVVVGGGISGMAAAKLLHDSGLNVVVLEARDRVGGRTYTLRNQKVKYVDLGGSYVGPTQNRILRLAKELGLETYKVNEVERLIHHVKGKSYPFRGPFPPVWNPITYLDHNNFWRTMDDMGREIPSDAPWKAPLAEEWDNMTMKELLDKLCWTESAKQLATLFVNLCVTAETHEVSALWFLWYVKQCGGTTRIISTTNGGQERKFVGGSGQVSERIMDLLGDRVKLERPVIYIDQTRENVLVETLNHEMYEAKYVISAIPPTLGMKIHFNPPLPMMRNQMITRVPLGSVIKCIVYYKEPFWRKKDYCGTMIIDGEEAPVAYTLDDTKPEGNYAAIMGFILAHKARKLARLTKEERLKKLCELYAKVLGSLEALEPVHYEEKNWCEEQYSGGCYTTYFPPGILTQYGRVLRQPVDRIYFAGTETATHWSGYMEGAVEAGERAAREILHAMGKIPEDEIWQSEPESVDVPAQPITTTFLERHLPSVPGLLRLIGLTTIFSATALGFLAHKRGLLVRV
notes: purchased Sigma Chemical Company M-7441; host or cells: baculovirus infected insect cells (microsomes)
Regarding B1, the Km – broadly, the substrate concentration at which the rate is half of its maximum – is 650 µM in data set [1], 24 ± 1 µM in data set [2] (other: fit of Table 21), 1880 µM in data set [2] (other: fit of Tables 23-24) and 16 ± 1 µM in data set [3].

B2: human recombinant monoamine oxidase A (MAO A) (Homo sapiens) (protein)
chain: MENQEKASIAGHMFDVVVIGGGISGLSAAKLLTEYGVSVLVLEARDRVGGRTYTIRNEHVDYVDVGGAYVGPTQNRILRLSKELGIETYKVNVSERLVQYVKGKTYPFRGAFPPVWNPIAYLDYNNLWRTIDNMGKEIPTDAPWEAQHADKWDKMTMKELIDKICWTKTARRFAYLFVNINVTSEPHEVSALWFLWYVKQCGGTTRIFSVTNGGQERKFVGGSGQVSERIMDLLGDQVKLNHPVTHVDQSSDNIIIETLNHEHYECKYVINAIPPTLTAKIHFRPELPAERNQLIQRLPMGAVIKCMMYYKEAFWKKKDYCGCMIIEDEDAPISITLDDTKPDGSLPAIMGFILARKADRLAKLHKEIRKKKICELYAKVLGSQEALHPVHYEEKNWCEEQYSGGCYTAYFPPGIMTQYGRVIRQPVGRIFFAGTETATKWSGYMEGAVEAGERAAREVLNGLGKVTEKDIWVQEPESKDVPAVEITHTFWERNLPSVSGLLKIIGFSTSVTALGFVLYKYKLLPRS
notes: purchased Sigma Chemical Company M-7316; host or cells: baculovirus infected insect cells (microsomes)
B2: the Km turned out to be 21 ± 1 µM in data set [4], 1560 ± 130 µM in data set [5] (other: fit of Table 22), 1700 µM in data set [5] (other: fit of Tables 23-24) and 1320 µM in data set [6].

B3: human recombinant flavin-containing monooxygenase 3 (FMO 3) (Homo sapiens) (protein)
chain: MGKKVAIIGAGVSGLASIRSCLEEGLEPTCFEKSNDIGGLWKFSDHAEEGRASIYKSVFSNSSKEMMCFPDFPFPDDFPNFMHNSKIQEYIIAFAKEKNLLKYIQFKTFVSSVNKHPDFATTGQWDVTTERDGKKESAVFDAVMVCSGHHVYPNLPKESFPGLNHFKGKCFHSRDYKEPGVFNGKRVLVVGLGNSGCDIATELSRTAEQVMISSRSGSWVMSRVWDNGYPWDMLLVTRFGTFLKNNLPTAISDWLYVKQMNARFKHENYGLMPLNGVLRKEPVFNDELPASILCGIVSVKPNVKEFTETSAIFEDGTIFEGIDCVIFATGYSFAYPFLDESIIKSRNNEIILFKGVFPPLLEKSTIAVIGFVQSLGAAIPTVDLQSRWAAQVIKGTCTLPSMEDMMNDINEKMEKKRKWFGKSETIQTDYIVYMDELSSFIGAKPNIPWLFLTDPKLAMEVYFGPCSPYQFRLVGPGQWPGARNAILTQWDRSLKPMQTRVVGRLQKPCFFFHWLKLFAIPILLIAVFLVLT
notes: purchased Sigma Chemical Company F-5053; host or cells: baculovirus infected insect cells (microsomes)
For the protein B3, the Km in data set [7] was determined as 200 ± 20 µM.

B4: beta-glucuronidase (GUS) (Homo sapiens) (protein)
chain: LQGGMLYPQESPSRECKELDGLWSFRADFSDNRRRGFEEQWYRRPLWESGPTVDMPVPSSFNDISQDWRLRHFVGWVWYEREVILPERWTQDLRTRVVLRIGSAHSYAIVWVNGVDTLEHEGGYLPFEADISNLVQVGPLPSRLRITIAINNTLTPTTLPPGTIQYLTDTSKYPKGYFVQNTYFDFFNYAGLQRSVLLYTTPTTYIDDITVTTSVEQDSGLVNYQISVKGSNLFKLEVRLLDAENKVVANGTGTQGQLKVPGVSLWWPYLMHERPAYLYSLEVQLTAQTSLGPVSDFYTLPVGIRTVAVTKSQFLINGKPFYFHGVNKHEDADIRGKGFDWPLLVKDFNLLRWLGANAFRTSHYPYAEEVMQMCDRYGIVVIDECPGVGLALPQFFNNVSLHHHMQVMEEVVRRDKNHPAVVMWSVANEPASHLESAGYYLKMVIAHTKSLDPSRPVTFVSNSNYAADKGAPYVDVICLNSYYSWYHDYGHLELIQLQLATQFENWYKKYQKPIIQSEYGAETIAGFHQDPPLMFTEEYQKSLLEQYHLGLDQKRRKYVVGELIWNFADFMTEQSPTRVLGNKKGIFTRQRQPKSAAFLLRERYWKIANETRYPHSVAKSQCLENSLFT
notes: purchased Sigma-Aldrich
On to B4, for which the Km in data set [8] amounted to 180 ± 30 µM.
